Patent publication EP4792821A2 (Beijing Youcare Kechuang Pharmaceutical Technology Co., Ltd., dated 2026)
The star is where a group is joined. Succinyl(4-O-cholesteryl) = CC(C)CCC[C@@H](C)[C@H]1CC[C@H]2[C@@H]3CC=C4C[C@@H](OC(=O)CCC(=O)*)CC[C@]4(C)[C@H]3CC[C@]12C

B1: Compound 33 (peptide)
peptide: Ac-SLEQVNKKINQSLKVNKKSDKLLENEAAAKK(Succinyl(4-O-cholesteryl))-NH2
SMILES: CC[C@H](C)[C@H](NC(=O)[C@H](CCCCN)NC(=O)[C@H](CCCCN)NC(=O)[C@H](CC(N)=O)NC(=O)[C@@H](NC(=O)[C@H](CCC(N)=O)NC(=O)[C@H](CCC(=O)O)NC(=O)[C@H](CC(C)C)NC(=O)[C@H](CO)NC(C)=O)C(C)C)C(=O)N[C@@H](CC(N)=O)C(=O)N[C@@H](CCC(N)=O)C(=O)N[C@@H](CO)C(=O)N[C@@H](CC(C)C)C(=O)N[C@@H](CCCCN)C(=O)N[C@H](C(=O)N[C@@H](CC(N)=O)C(=O)N[C@@H](CCCCN)C(=O)N[C@@H](CCCCN)C(=O)N[C@@H](CO)C(=O)N[C@@H](CC(=O)O)C(=O)N[C@@H](CCCCN)C(=O)N[C@@H](CC(C)C)C(=O)N[C@@H](CC(C)C)C(=O)N[C@@H](CCC(=O)O)C(=O)N[C@@H](CC(N)=O)C(=O)N[C@@H](CCC(=O)O)C(=O)N[C@@H](C)C(=O)N[C@@H](C)C(=O)N[C@@H](C)C(=O)N[C@@H](CCCCN)C(=O)N[C@@H](CCCCNC(=O)CCC(=O)O[C@H]1CC[C@@]2(C)C(=CC[C@H]3[C@@H]4CC[C@H]([C@H](C)CCCC(C)C)[C@@]4(C)CC[C@@H]32)C1)C(N)=O)C(C)C
B2: Compound 3 (peptide)
peptide: Ac-DEFDKKKIEEVNKKIEESLKKIEESDKKLEEV-NH2
B3: Compound 10 (peptide)
peptide: Ac-KIEEVNKKIEESLKKIEESDKKLEEVNKKLEAAAKK(Succinyl(4-O-cholesteryl))-NH2
SMILES: CC[C@H](C)[C@H](NC(=O)[C@H](CCCCN)NC(C)=O)C(=O)N[C@@H](CCC(=O)O)C(=O)N[C@@H](CCC(=O)O)C(=O)N[C@H](C(=O)N[C@@H](CC(N)=O)C(=O)N[C@@H](CCCCN)C(=O)N[C@@H](CCCCN)C(=O)N[C@H](C(=O)N[C@@H](CCC(=O)O)C(=O)N[C@@H](CCC(=O)O)C(=O)N[C@@H](CO)C(=O)N[C@@H](CC(C)C)C(=O)N[C@@H](CCCCN)C(=O)N[C@@H](CCCCN)C(=O)N[C@H](C(=O)N[C@@H](CCC(=O)O)C(=O)N[C@@H](CCC(=O)O)C(=O)N[C@@H](CO)C(=O)N[C@@H](CC(=O)O)C(=O)N[C@@H](CCCCN)C(=O)N[C@@H](CCCCN)C(=O)N[C@@H](CC(C)C)C(=O)N[C@@H](CCC(=O)O)C(=O)N[C@@H](CCC(=O)O)C(=O)N[C@H](C(=O)N[C@@H](CC(N)=O)C(=O)N[C@@H](CCCCN)C(=O)N[C@@H](CCCCN)C(=O)N[C@@H](CC(C)C)C(=O)N[C@@H](CCC(=O)O)C(=O)N[C@@H](C)C(=O)N[C@@H](C)C(=O)N[C@@H](C)C(=O)N[C@@H](CCCCN)C(=O)N[C@@H](CCCCNC(=O)CCC(=O)O[C@H]1CC[C@@]2(C)C(=CC[C@H]3[C@@H]4CC[C@H]([C@H](C)CCCC(C)C)[C@@]4(C)CC[C@@H]32)C1)C(N)=O)C(C)C)[C@@H](C)CC)[C@@H](C)CC)C(C)C
B4: Compound 19 (peptide)
peptide: Ac-FDASIEEVNRRIEESLRRIEESDRRLEAAAKK(Succinyl(4-O-cholesteryl))-NH2
SMILES: CC[C@H](C)[C@H](NC(=O)[C@H](CO)NC(=O)[C@H](C)NC(=O)[C@H](CC(=O)O)NC(=O)[C@H](Cc1ccccc1)NC(C)=O)C(=O)N[C@@H](CCC(=O)O)C(=O)N[C@@H](CCC(=O)O)C(=O)N[C@H](C(=O)N[C@@H](CC(N)=O)C(=O)N[C@@H](CCCNC(=N)N)C(=O)N[C@@H](CCCNC(=N)N)C(=O)N[C@H](C(=O)N[C@@H](CCC(=O)O)C(=O)N[C@@H](CCC(=O)O)C(=O)N[C@@H](CO)C(=O)N[C@@H](CC(C)C)C(=O)N[C@@H](CCCNC(=N)N)C(=O)N[C@@H](CCCNC(=N)N)C(=O)N[C@H](C(=O)N[C@@H](CCC(=O)O)C(=O)N[C@@H](CCC(=O)O)C(=O)N[C@@H](CO)C(=O)N[C@@H](CC(=O)O)C(=O)N[C@@H](CCCNC(=N)N)C(=O)N[C@@H](CCCNC(=N)N)C(=O)N[C@@H](CC(C)C)C(=O)N[C@@H](CCC(=O)O)C(=O)N[C@@H](C)C(=O)N[C@@H](C)C(=O)N[C@@H](C)C(=O)N[C@@H](CCCCN)C(=O)N[C@@H](CCCCNC(=O)CCC(=O)O[C@H]1CC[C@@]2(C)C(=CC[C@H]3[C@@H]4CC[C@H]([C@H](C)CCCC(C)C)[C@@]4(C)CC[C@@H]32)C1)C(N)=O)[C@@H](C)CC)[C@@H](C)CC)C(C)C
B5: Compound 1 (peptide)
peptide: Ac-FDASIEEVNRRIEESLRRIEESDRRLEVNKKA-NH2
B6: Compound 24 (peptide)
peptide: Ac-FDFDEFDASISQVNEKINESLAFIRLAFIRKSDELLEAAAKK-NH2
B7: Compound 32 (peptide)
peptide: Ac-ILELVNKKIEQSLKFIEKSDKLLENEAAAKK(Succinyl(4-O-cholesteryl))-NH2
SMILES: CC[C@H](C)[C@H](NC(C)=O)C(=O)N[C@@H](CC(C)C)C(=O)N[C@@H](CCC(=O)O)C(=O)N[C@@H](CC(C)C)C(=O)N[C@H](C(=O)N[C@@H](CC(N)=O)C(=O)N[C@@H](CCCCN)C(=O)N[C@@H](CCCCN)C(=O)N[C@H](C(=O)N[C@@H](CCC(=O)O)C(=O)N[C@@H](CCC(N)=O)C(=O)N[C@@H](CO)C(=O)N[C@@H](CC(C)C)C(=O)N[C@@H](CCCCN)C(=O)N[C@@H](Cc1ccccc1)C(=O)N[C@H](C(=O)N[C@@H](CCC(=O)O)C(=O)N[C@@H](CCCCN)C(=O)N[C@@H](CO)C(=O)N[C@@H](CC(=O)O)C(=O)N[C@@H](CCCCN)C(=O)N[C@@H](CC(C)C)C(=O)N[C@@H](CC(C)C)C(=O)N[C@@H](CCC(=O)O)C(=O)N[C@@H](CC(N)=O)C(=O)N[C@@H](CCC(=O)O)C(=O)N[C@@H](C)C(=O)N[C@@H](C)C(=O)N[C@@H](C)C(=O)N[C@@H](CCCCN)C(=O)N[C@@H](CCCCNC(=O)CCC(=O)O[C@H]1CC[C@@]2(C)C(=CC[C@H]3[C@@H]4CC[C@H]([C@H](C)CCCC(C)C)[C@@]4(C)CC[C@@H]32)C1)C(N)=O)[C@@H](C)CC)[C@@H](C)CC)C(C)C
B8: Compound 12 (peptide)
peptide: Ac-FDASIEEVNRRIEESLRRIEESDRRLEVNKKAGSGSGK(Succinyl(4-O-cholesteryl))-NH2
SMILES: CC[C@H](C)[C@H](NC(=O)[C@H](CO)NC(=O)[C@H](C)NC(=O)[C@H](CC(=O)O)NC(=O)[C@H](Cc1ccccc1)NC(C)=O)C(=O)N[C@@H](CCC(=O)O)C(=O)N[C@@H](CCC(=O)O)C(=O)N[C@H](C(=O)N[C@@H](CC(N)=O)C(=O)N[C@@H](CCCNC(=N)N)C(=O)N[C@@H](CCCNC(=N)N)C(=O)N[C@H](C(=O)N[C@@H](CCC(=O)O)C(=O)N[C@@H](CCC(=O)O)C(=O)N[C@@H](CO)C(=O)N[C@@H](CC(C)C)C(=O)N[C@@H](CCCNC(=N)N)C(=O)N[C@@H](CCCNC(=N)N)C(=O)N[C@H](C(=O)N[C@@H](CCC(=O)O)C(=O)N[C@@H](CCC(=O)O)C(=O)N[C@@H](CO)C(=O)N[C@@H](CC(=O)O)C(=O)N[C@@H](CCCNC(=N)N)C(=O)N[C@@H](CCCNC(=N)N)C(=O)N[C@@H](CC(C)C)C(=O)N[C@@H](CCC(=O)O)C(=O)N[C@H](C(=O)N[C@@H](CC(N)=O)C(=O)N[C@@H](CCCCN)C(=O)N[C@@H](CCCCN)C(=O)N[C@@H](C)C(=O)NCC(=O)N[C@@H](CO)C(=O)NCC(=O)N[C@@H](CO)C(=O)NCC(=O)N[C@@H](CCCCNC(=O)CCC(=O)O[C@H]1CC[C@@]2(C)C(=CC[C@H]3[C@@H]4CC[C@H]([C@H](C)CCCC(C)C)[C@@]4(C)CC[C@@H]32)C1)C(N)=O)C(C)C)[C@@H](C)CC)[C@@H](C)CC)C(C)C
B9: Compound 31 (peptide)
peptide: Ac-SDEQVNEKINQSLAFIRRIRKLLHNEAAAKK(Succinyl(4-O-cholesteryl))-NH2
SMILES: CC[C@H](C)[C@H](NC(=O)[C@H](Cc1ccccc1)NC(=O)[C@H](C)NC(=O)[C@H](CC(C)C)NC(=O)[C@H](CO)NC(=O)[C@H](CCC(N)=O)NC(=O)[C@H](CC(N)=O)NC(=O)[C@@H](NC(=O)[C@H](CCCCN)NC(=O)[C@H](CCC(=O)O)NC(=O)[C@H](CC(N)=O)NC(=O)[C@@H](NC(=O)[C@H](CCC(N)=O)NC(=O)[C@H](CCC(=O)O)NC(=O)[C@H](CC(=O)O)NC(=O)[C@H](CO)NC(C)=O)C(C)C)[C@@H](C)CC)C(=O)N[C@@H](CCCNC(=N)N)C(=O)N[C@@H](CCCNC(=N)N)C(=O)N[C@H](C(=O)N[C@@H](CCCNC(=N)N)C(=O)N[C@@H](CCCCN)C(=O)N[C@@H](CC(C)C)C(=O)N[C@@H](CC(C)C)C(=O)N[C@@H](Cc1c[nH]cn1)C(=O)N[C@@H](CC(N)=O)C(=O)N[C@@H](CCC(=O)O)C(=O)N[C@@H](C)C(=O)N[C@@H](C)C(=O)N[C@@H](C)C(=O)N[C@@H](CCCCN)C(=O)N[C@@H](CCCCNC(=O)CCC(=O)O[C@H]1CC[C@@]2(C)C(=CC[C@H]3[C@@H]4CC[C@H]([C@H](C)CCCC(C)C)[C@@]4(C)CC[C@@H]32)C1)C(N)=O)[C@@H](C)CC
B10: Compound 2 (peptide)
peptide: Ac-DDEFNQKINEVNEKIEEILKKIEESDRKLEESDKKA-NH2
B11: Compound 11 (peptide)
peptide: Ac-WDEFDKKIEEVNKKIEESLKKIEESDKKLEEVNKKLGSGSGK(Succinyl(4-O-cholesteryl))-NH2
B12: Compound 23 (peptide)
peptide: Ac-YDELVFDASQVNEKINQSLEKIRKSDELLHNV-NH2

Each binder was assayed against F protein of RSV A long virus strain (Respiratory Syncytial Virus (RSV) A …, UniProt P12568 26-574) (assay: cell-based or functional assay).
F protein of RSV A long virus strain, sequence (P12568 26-574): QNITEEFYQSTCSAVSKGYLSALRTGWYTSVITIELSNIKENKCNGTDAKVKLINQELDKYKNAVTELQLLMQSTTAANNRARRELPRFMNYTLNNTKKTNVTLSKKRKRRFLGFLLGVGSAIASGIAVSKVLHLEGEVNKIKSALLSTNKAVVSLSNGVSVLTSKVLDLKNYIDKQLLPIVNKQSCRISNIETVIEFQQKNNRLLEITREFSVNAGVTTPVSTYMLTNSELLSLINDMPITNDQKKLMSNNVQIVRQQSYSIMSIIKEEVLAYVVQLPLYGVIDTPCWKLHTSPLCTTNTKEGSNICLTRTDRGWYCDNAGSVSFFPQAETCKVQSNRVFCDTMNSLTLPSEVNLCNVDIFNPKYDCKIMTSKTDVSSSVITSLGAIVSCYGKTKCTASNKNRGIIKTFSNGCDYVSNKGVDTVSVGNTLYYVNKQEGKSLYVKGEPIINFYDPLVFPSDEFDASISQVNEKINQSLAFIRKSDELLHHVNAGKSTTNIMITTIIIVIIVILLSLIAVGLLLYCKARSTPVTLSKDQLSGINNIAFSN
For B1, the “IC50/nM, plaque reduction, RSV A long on HEp-2 cells (Table 2, Cell fusion inhibition activity)” value was 5040 nM. For B2, the “IC50/nM, plaque reduction, RSV A long on HEp-2 cells (Table 2, Cell fusion inhibition activity)” value was 4430 nM. B3 was tested, and the “IC50/nM, plaque reduction, RSV A long on HEp-2 cells (Table 2, Cell fusion inhibition activity)” value was 18.1 nM. B4 was tested, and the “IC50/nM, plaque reduction, RSV A long on HEp-2 cells (Table 2, Cell fusion inhibition activity)” value was 16.2 nM. For B5, the “IC50/nM, plaque reduction, RSV A long on HEp-2 cells (Table 2, Cell fusion inhibition activity)” value was 1360 nM. B6 was tested, and the “IC50/nM, plaque reduction, RSV A long on HEp-2 cells (Table 2, Cell fusion inhibition activity)” value was 2650 nM. B7 was tested, and the “IC50/nM, plaque reduction, RSV A long on HEp-2 cells (Table 2, Cell fusion inhibition activity)” value was 296 nM. In the case of B8, the “IC50/nM, plaque reduction, RSV A long on HEp-2 cells (Table 2, Cell fusion inhibition activity)” value is reported as 28.4 nM. With B9 the “IC50/nM, plaque reduction, RSV A long on HEp-2 cells (Table 2, Cell fusion inhibition activity)” value was 2220 nM. For B10, the “IC50/nM, plaque reduction, RSV A long on HEp-2 cells (Table 2, Cell fusion inhibition activity)” value was greater than 8000 nM. In the case of B11, the “IC50/nM, plaque reduction, RSV A long on HEp-2 cells (Table 2, Cell fusion inhibition activity)” value is reported as 99.1 nM. For B12, the “IC50/nM, plaque reduction, RSV A long on HEp-2 cells (Table 2, Cell fusion inhibition activity)” value was 2330 nM.
